Data set [1] relates to S. aureus strains (MSSA and MRSA). The experiment in a line: Muralytic activity on bacterial strains, Set I. Type of data set: cell-based, Staphylococcus aureus. The settings on record: 50 U of ClyS, 15 minutes. The protocol: Muralytic activity of ClyS was tested on a number of bacterial strains representing a variety of species which were divided into sets (Table 1 and FIG. 10). Set I consisted of S. aureus strains including methicillin-sensitive S. aureus (MSSA) and MRSA. ClyS was active against MSSA and MRSA although differences were observed between S. aureus strains. Set II consisted of different species of staphylococci including S. epidermidis, S. simulans and S. sciuri. […] Set III consisted of a mix of Gram-positive and Gram-negative bacteria including representatives of group A, B, C and E streptococci, oral streptococcal species including S. gordonli, and S. salivarius, as well as S. uberis, Bacillus cereus, Pseudomonas aeruginosa and E. coli.
The viability assay of ClyS was tested as previously described (Nelson et al, 2001). Briefly, log phase cultures of S. aureus strain 8325-4 were resuspended in PB to OD600 of 0.8-1.0. 50 U of ClyS or the corresponding volume of PB was added to bacterial cells and aliquots were removed, serially diluted, and plated at 1, 5, 10, 30, and 60 minutes to assess the viability of the treated and control cells. All experiments were performed in triplicate. The activity of ClyS on various bacterial strains was tested as described previously (Schuch et al, 2002). Briefly, log phase bacterial cells were treated with 50 U of ClyS at 37° C. for 15 minutes. […]

A further data set concerns MRSA strain COL. Description: Checkerboard broth-microdilution assay. The format is cell-based, Staphylococcus aureus. The source says: (§1) We used the checkerboard broth-microdilution assay to test the interaction of ClyS with vancomycin and with oxacillin. […] Isobolograms for ClyS with vancomycin and ClyS with oxacillin was plotted by transcribing the enzyme concentrations along the inhibitory line on the microtiter plate in an x/y plot.
On the technique in general: Broth dilution looks for growth in wells or tubes with falling amounts of substance.

A further data set relates to VISA strain Mu50. Description: Checkerboard broth-microdilution assay. The format is cell-based, Staphylococcus aureus. To be noted: VISA strain Mu50.
Description: as §1

In another data set the test system is S. aureus 8325-4 cells. The experiment in a line: Spectrophotometric loss of turbidity (OD600) lytic assay. Type of data set: cell-based, Staphylococcus aureus. The protocol:
The unit activity of ClyS was defined by measuring the spectrophotometric loss of turbidity, indicative of cell lysis, of S. aureus 8325-4 cells upon adding serial dilutions of ClyS. In our assays, 5 micrograms of ClyS corresponded to 1 U of lytic activity. When 50 U of ClyS was added to exponentially growing 8325-4 cells the OD600 dropped to baseline within 5 min (FIG. 7). To confirm that the observed cell lysis corresponds to cell death, staphylococcal viability was determined by enumerating aliquots from the lytic reaction at various time points.
ClyS activity was measured as previously described (Daniel et al, 2001), with some modifications. Briefly, S. aureus strain 8325-4 was grown to an OD600 of 0.25-0.3, centrifuged, and resuspended in PB to a final OD600 of 0.8-1.0. Two-fold serial dilutions of purified ClyS […] were added to 100 μl of bacterial suspension in 96-well plates (Costar) and the decrease in OD600 was monitored by a Spectramax Plus 384 spectrophotometer (Molecular Devices) over 30 min at 37° C. ClyS activity in units per milliliter was defined as the reciprocal of the highest dilution of lysin that decreased the absorbance by 50% in 15 minutes.

A short description of data set [2]: Solubility of expressed lysins and chimeras. The protocol:
In another embodiment, the lysin is a chimeric protein that comprises an endopeptidase domain of the S. aureus Twort lysin upstream of the phiNM3 CWT domain (SEQ ID NO:1). The chimeric polypeptide is preferably sufficiently soluble in phosphate buffered saline (PBS). Preferred levels of solubility in PBS for the chimeric lysins is at least about 1 mg/ml and more preferably at least about 3 mg/mL. in PBS. […] One example of such a lysin is provided in SEQ ID NO:2 (AD127), shown in FIG. 5A and consisting of the Twort lysin endopeptidase domain attached to the phiNM3 CWT domain (SEQ ID NO:1). The isolated polypeptide of SEQ ID NO:2 (AD 127) was constructed by engineering S. epidermidis autolysin amidase and Twort lysin endopeptidase domains upstream of phiNM3 CWT domain, respectively.
Traditionally, Bacillus-specific lysins are expressed at high levels and are soluble in E. coli. Therefore, our first attempt was to engineer a 16-amino acid peptide (4) that is conserved in several S. aureus-specific lysins (Lu J Z, Fujiwara T, Komatsuzawa H, Sugai M, Sakon J. 2006. Cell wall-targeting domain of glycylglycine endopeptidase distinguishes among peptidoglycan cross-bridges. (Lue et al. (2006) J. Biol. Chem. 281(1):549-58) The catalytic domain of the Bacillus-specific lysin PlyB was used to generate chimera AD 103 (FIG. 4) (SEQ ID NO: 13). The chimeras were tested for expression, solubility and activity. Then the entire C-terminal CWT domain of PlyB (6) was replaced by the putative C-terminal domain of S. aureus phage Twort lysin (8) to obtain AD 105 (SEQ ID NO: 14). […] Since the lysostaphin catalytic domain […] (10) in AD 112 was of bacterial origin, we attempted to engineer a phage-derived catalytic domain upstream of the lysostaphin CWT. For this, the endopeptidase domain in Twort lysin (14) was used to construct chimera AD 119 (SEQ ID NO:3).

Experimental findings from patent US11827911B2, “Chimeric bacteriophage lysin with activity against Staphylococci bacteria” (priority 2008, dated 2023) are described below.

B1: ClyS: chimeric lysin: Twort lysin endopeptidase domain attached to the phiNM3 CWT domain, 280 amino acid residues (protein)
chain: METLKQAESYIKSKVNTGTDFDGLYGYQCMDLAVDYIYHVTDGKIRMWGNAKDAINNSFGGTATVYKNYPAFRPKYGDVVVWTTGNFATYGHIAIVTNPDPYGDLQYVTVLEQNWNGNGIYKTELATIRTHDYTGITHFIRPNFATESSVKKKDTKKKPKPSNRDGLNKDKIVYDRTNINYNMVLQGKSASKITVGSKAPYNLKWSKGAYFNAKIDGLGATSATRYGDNRTNYRFDVGQAVYAPGTLIYVFEIIDGWCRIYWNNHNEWIWHERLIVKEVF
modifications: Chimeric of Staphylococcus aureus bacteriophage Twort domain and Staphylococcus aureus phage phiNM3 CWT domain
notes: chimeric lysin: Twort lysin endopeptidase domain attached to the phiNM3 CWT domain, 280 amino acid residues
For B1, in data set [1], the “muralytic activity against MRSA” value is reported as “active” and the “muralytic activity against MSSA” value is reported as “active”. In the data set with MRSA strain COL, the MIC is 8 U/ml. Also, the MIC with VISA strain Mu50 is 6 U/ml. In addition, in the data set with S. aureus 8325-4 cells (50 U of ClyS, exponentially growing 8325-4 cells), the “time for OD600 to drop to baseline” value is ≤ 5 min. For the same molecule, the “amount corresponding to 1 U of lytic activity” value with S. aureus 8325-4 cells (unit = reciprocal of highest dilution that decreased absorbance by 50% in 15 minutes) is 5 micrograms. In addition, in data set [2], the solubility result is “very high”.
